Measurements as given in patent US20090036647A1, “BITORAN WHICH IS TRYPSIN-INHIBITOR-LIKE PROTEIN DERIVED FROM BITIS ARIETANS VENOM, AND USE THEREOF AS BLOOD COAGULATION FACTOR Xa INHIBITOR” (NEC SOFT, LTD., priority 2005, published 2009).

Experiments:
[1] = target: T1, human blood coagulation factor Xa (Homo sapiens, UniProt P00742); assay: cell-based or functional assay
Target sequence in this assay (P00742 41-488 limits assumed): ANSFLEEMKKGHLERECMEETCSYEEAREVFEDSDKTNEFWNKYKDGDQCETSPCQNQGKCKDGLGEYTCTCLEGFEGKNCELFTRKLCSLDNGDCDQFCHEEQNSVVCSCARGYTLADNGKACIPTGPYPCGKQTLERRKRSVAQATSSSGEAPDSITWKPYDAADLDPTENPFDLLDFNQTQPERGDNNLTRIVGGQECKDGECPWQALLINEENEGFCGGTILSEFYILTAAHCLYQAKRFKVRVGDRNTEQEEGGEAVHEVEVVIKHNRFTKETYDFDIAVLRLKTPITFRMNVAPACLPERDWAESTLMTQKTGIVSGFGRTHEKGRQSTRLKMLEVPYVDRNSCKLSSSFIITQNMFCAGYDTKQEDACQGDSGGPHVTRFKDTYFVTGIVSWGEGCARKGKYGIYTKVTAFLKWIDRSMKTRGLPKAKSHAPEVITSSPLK

[2] = target: T1, human blood coagulation factor Xa; assay: Inhibition of the serine protease activity of human blood coagulation factor Xa (chromogenic substrate LGR-pNA); assay type: biochemical; details: 0.3 μM human factor Xa, 15 min at 37° C. preincubation, synthetic substrate LGR-pNA, Tris-HCl buffered saline pH8.0; from V/V0 curves of FIG. 4; read-out: 50% inhibition concentration (IC50) against serine protease activity of factor Xa
Method: Crude venom of Bitis arietans arietans purchased from LATOXAN was dissolved in Tris-HCl buffer (50 mM Tris-HCl pH 8.0) to prepare 2 mL of a crude venom solution (in concentration of 250 mg/mL). The crude venom solution was applied to Superdex 200 pg gel permeation column (φ2.6 cm×L 60 cm) equilibrated with the Tris-HCl buffer (50 mM Tris-HCl pH 8.0) at a flow rate of 2 mL/min. Two mL aliquots of the series of eluted fractions were collected, and each eluted fraction was determined for the presence of inhibitory activity against the serine protease activity of blood coagulation factor Xa. In the assay for inhibitory activity specific to the serine protease activity of blood coagulation factor Xa, a synthetic substrate Boc-leucyl-glycil-L-arginyl-p-nitroanilide hydrochloride was used to determine a concentration of a reaction product formed by truncation at the C-terminal side of an arginine residue by protease activity of blood coagulation factor Xa (Cproduct: concentration of p-nitroaniline), and then from a product concentration without addition of a test substance: Cproduct0 and a product concentration with addition of a test substance: Cproduct, an inhibitory rate was calculated as (Cproduct0−Cproduct)/Cproduct0. […]
Target sequence in this assay (P00742 235-488 limits assumed): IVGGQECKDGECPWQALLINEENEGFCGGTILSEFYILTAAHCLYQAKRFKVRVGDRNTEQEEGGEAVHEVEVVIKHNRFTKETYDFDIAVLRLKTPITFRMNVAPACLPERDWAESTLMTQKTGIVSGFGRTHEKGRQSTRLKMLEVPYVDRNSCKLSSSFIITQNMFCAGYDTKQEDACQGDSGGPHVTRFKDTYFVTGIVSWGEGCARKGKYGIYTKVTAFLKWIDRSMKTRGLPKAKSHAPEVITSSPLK
Target sequence in this assay (P00742 41-179 partner limits assumed): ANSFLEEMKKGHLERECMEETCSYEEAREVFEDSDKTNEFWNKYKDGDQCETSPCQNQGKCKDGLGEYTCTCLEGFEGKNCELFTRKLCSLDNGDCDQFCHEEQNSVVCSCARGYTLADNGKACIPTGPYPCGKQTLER

Question: For “SBTI (Soybean Trypsin Inhibitor; MW=20.1 kDa) (from UniProt P01070 25-205)”, which 50% inhibition concentration (IC50) of factor Xa protease activity (V/V0), cleavage of synthetic substrate LGR-pNA [1] is on record?
Answer: The 50% inhibition concentration (IC50) of factor Xa protease activity (V/V0), cleavage of synthetic substrate LGR-pNA was 3e-07 M.

B1: SBTI: Trypsin inhibitor substance from plant; Kunitz-type trypsin inhibitor from soybean, MW=20.1 kDa, positive control (protein, UniProt P01070 25-205, looked up)
Trypsin inhibitor A: DFVLDNEGNPLENGGTYYILSDITAFGGIRAAPTGNERCPLTVVQSRNELDKGIGTIISSPYRIRFIAEGHPLSLKFDSFAVIMLCVGIPTEWSVVEDLPEGPAVKIGENKDAMDGWFRLERVSDDEFNNYKLVFCPQQAEDDKCGDIGISIDHDDGTRRLVVSKNKPLVVQFQKLDKESL
Question: B1 was tested. Which IC50 [2] did it give?
Answer: Its IC50 is 300 nM.

B2: bitoran V (protein)
chain: CRQNRPDFCYLPAVEGPCRAYIRSFFYNSTSNECEKFFYGGCYGNANKFETRDECRKTCVASA
Question: With B2 as the molecule, how does the IC50 [2] read?
Answer: The IC50 was 20 nM.
